# Measured values: publication PMC12090739
# Assays:
# PDGFRα-V242K [1] = target: PDGFRα-V242K (UniProt P16234)
# PDGFRα-V242K [2] = target: PDGFRα-V242K (UniProt P16234); remark: listed apart in the source
# [3] = target: HCMV gH/gL/gO complex (strain TR; gO allele gO1b) (human cytomegalovirus (HCMV) strain TR)
Substance,"rate of gH/gL/gO-PDGFRα-dependent cell–cell fusion, as percent of parental gO1b (% of parental gO1b) (PDGFRα-V242K [2])",also measured
HCMV gH/gL/gO complex (strain TR; gO allele gO1b),,"rate of gB-mediated cell–cell fusion (split luciferase, live cells); ARPE19 target cells with PDGFRα against those without (PDGFRα-V242K [1]): > 100 fold"
HCMV gH/gL/gO complex with gO allele gO1a,83,
HCMV gH/gL/gO complex with gO allele gO1c,107,
HCMV gH/gL/gO complex with gO allele gO2a,112,
soluble PDGFRα-FC (from UniProt P16234 24-528) (Fc fusion),,inhibition of the rate of gH/gL/gO-PDGFRα-dependent cell–cell fusion (pair that is blocked: m1 and m2) [3]: 2.5 fold
